Three proteins from PMC2830148 (Biochemistry, 2009) can be followed below.

The data set concerns the molecule itself. As to the kind of experiment: SEC.

For orientation: stoichiometry N means the number of molecules, sites or subunits per partner or assembly.

B1: human TRAF2 construct RZ1 (RING and first zinc finger domains, residues 1-133-His), wild type (domain or fragment, UniProt Q12933 1-133, looked up)
chain: MAAASVTPPGSLELLQPGFSKTLLGTKLEAKYLCSACRNVLRRPFQAQCGHRYCSFCLASILSSGPQNCAACVHEGIYEEGISILESSSAFPDNAARREVESLPAVCPSDGCTWKGTLKEYESCHEGRCPLML
On to B1, for which the “stoichiometry N” value amounted to 2.

B2: TRAF2 RZ1 N94A mutant (domain or fragment, human, UniProt Q12933 1-133, looked up)
chain: MAAASVTPPGSLELLQPGFSKTLLGTKLEAKYLCSACRNVLRRPFQAQCGHRYCSFCLASILSSGPQNCAACVHEGIYEEGISILESSSAFPDAAARREVESLPAVCPSDGCTWKGTLKEYESCHEGRCPLML
With B2, the binding result was “binds”.

B3: TRAF2 RZ1 Q46A mutant (domain or fragment, human, UniProt Q12933 1-133, looked up)
chain: MAAASVTPPGSLELLQPGFSKTLLGTKLEAKYLCSACRNVLRRPFAAQCGHRYCSFCLASILSSGPQNCAACVHEGIYEEGISILESSSAFPDNAARREVESLPAVCPSDGCTWKGTLKEYESCHEGRCPLML
Take B3: the binding result is “binds”.
